# Data reported in the supplement of paper PMC12764529.
# ± gives the half width of the 95% confidence interval.
# Tests used:
# [1] = folding stability dG unfold from chymotrypsin proteolysis; higher = more stable
# In short: (§1)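 Unfolding free energy was derived, per protease or combined, against a sequence-predicted unfolded-state K50 and a shared folded-state K50, starting from K50 inferred by Bayesian fitting of sequencing counts. Digestion with trypsin and chymotrypsin was carried out on designed mini-proteins under 80 residues without cysteine in a PA-tagged cDNA display construct. Only designs with AlphaFold2 dimer inter-PAE above 15 were kept.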
# [2] = folding stability dG unfold from trypsin proteolysis; higher = more stable
# In short: as §1
# [3] = folding stability dG unfold (combined trypsin and chymotrypsin); higher = more stable
# In short: as §1
Sequence,folding stability dG unfold [1] [kcal/mol],folding stability dG unfold [2] [kcal/mol],folding stability dG unfold [3] [kcal/mol]
SKKKITIEVEVEKDEETGEYTVRIRITVDGKEIEIEIKAKTPEEAKEKAKKLAEELLKKYPDKVKIEIKPSA [r9_1148_TrROS_Hall],1.98 ± 0.029,2.48 ± 0.11,2.21 ± 0.15
SAGGSAGGSAGGENPVDFKARVELLSGVVELTYTNEDGEPTTTLEEVVALKIEIEPSNNSAGGSAGGSAGGS [r10_1212_TrMRF],1.81 ± 0.062,1.23 ± 0.046,1.65 ± 0.073
SAGGSAGGSAMTIEVTVPPEVPEEEAAERVARALRELFPIPEIKVSVERRPDGIIKVTVEGGSAGGSAGGSA [r18_1_TrMRF],0.902 ± 0.052,0.81 ± 0.04,0.888 ± 0.1
SKEEKPPEVKTFKVKKIEFDPETKKITVEVDGKKLTLELKPGQEVEIFKDGKEIRVVRLAPPPPEKKEKKSA [r9_551_TrROS_Hall],2.95 ± 0.27,1.94 ± 0.36,> 6
SAGGSAGGSDGVIQIPIKSDDGEEFKIEIPIEQIKKMMKEGRPIKIWLFDNGKMVRPFEIPIDSAGGSAGGS [r12_991_TrROS],1.06 ± 0.15,0.428 ± 0.12,0.735 ± 0.19
SAEPEVEYVVIELEVTIELAPGQEAPTADEIAEALRAALEAAGAEITSVEVEVRDGQVTVRVTIVLPKKASA [r9_1134_TrROS_Hall],3.51 ± 0.17,3.53 ± 0.086,3.6 ± 0.16
SAGGSAGGSAGMKYKATIPLPDGTTLTYESEDPEKAIEEITKETGVPKSKITITPIPELESAGGSAGGSAGG [r17_169_JUSTAS],0.709 ± 0.096,0.33 ± 0.03,0.598 ± 0.097
SAMEVVEERELPDGTTVVTIPDPATGDTVVLVTDPEGKITVYTYPSSTGIPTEEVFPDLSVEEAIARLASAG [r14_760_JUSTAS],0.858 ± 0.071,0.645 ± 0.046,0.775 ± 0.058
SAGGSAKIEIIKDPETGTYTIRLEKEIKPGQTLTITDENGETWKITSVSVEEVNGELYVTVKVEKVSAGGSA [r15_838_TrROS_Hall],3.542 ± 0.026,2.24 ± 0.048,3.19 ± 0.056
SAGGSAGGSAGGSTGITSTFFDPKTGTVTTTTLVPSTGTTTTTVTPVTIPGPAATTTLTSAGGSAGGSAGGS [r10_331_JUSTAS],0.55 ± 0.052,1.31 ± 0.067,0.888 ± 0.045
SAGGSAGGSKKKTIVILVPPGMSVDAIKKKLKELGIKVKIVPAPPVKVKVDEKTNELKVEKVTSAGGSAGGS [r12_80_TrROS_Hall],0.618 ± 0.086,0.874 ± 0.059,0.657 ± 0.15
SAGGSAGGSAGGPTIVIKDVKGLTPEQAEALARDLLKELGLEDADVRLERGEDGDLTFTYSAGGSAGGSAGG [r7_810_TrMRF],0.79 ± 0.14,1.68 ± 0.034,1.26 ± 0.11
SAGGSAGGSSMTLTSEKTEKFTEGSKEFLKKTETWKLPGNSTLTKETIIDPSSDKYKEKISLLSAGGSAGGS [r12_1035_JUSTAS],-0.0253 ± 0.24,-0.727 ± 0.24,-0.159 ± 0.18
SAGGMDPDDLKGMPPEQAKDIVRDWIREYMQERNPNMPPGMKITDVPVEVRDPDNGKEIEVKVEIENYSAGG [r13_555_TrROS],-0.00917 ± 0.33,-0.936 ± 0.37,-0.242 ± 0.33
SAGGSAGGSAGGKFKPGQTIKIKLKVKVKVNGKEYEFEKELEIKIKPKVTMSEEELKKKSAGGSAGGSAGGS [r10_175_TrROS_Hall],2.12 ± 0.09,0.169 ± 0.16,1.39 ± 0.26
EITIRNPNGMEVKKVEFDPPDSTIKFEFRMPDYYVKIEFQIYPVGGGWVIPIKIEIVPIPPTPAQRKKMQES [r1_154_TrROS],3.4 ± 0.17,1.44 ± 0.13,2.85 ± 0.25

Sequence,folding stability dG unfold [1] [kcal/mol],folding stability dG unfold [2] [kcal/mol],folding stability dG unfold [3] [kcal/mol]
SAGGSAGGSAGTLRLEVELKLRVRNPATREWQEVTLRLEVEFEPAPPVLVRDANGRLLLLSAGGSAGGSAGG [r11_307_TrROS_Hall],3.434 ± 0.021,1.68 ± 0.024,2.98 ± 0.082
SADALKKILSNIHSVEFDPKWGWVTIHFPNKSKIKKALKEGFPRVEMQEDPDGHMMIRIRVPKLPPGQPSAG [r14_115_TrROS],2.65 ± 0.043,1.82 ± 0.057,2.35 ± 0.2
SAGGSAGGIWFMIKSAEDLKNLLNKWGWTIKDISVERWENDDGYVWIPIKIKPVPPPPPPEEDKSAGGSAGG [r6_981_TrROS],3.77 ± 0.061,2.36 ± 0.086,3.06 ± 0.44
SAMKLTVSSSSPEEAQAQAEALKAQLRAELAAAGHPGAEVPVEITVTAVPPPVPVDVADPTSDRWSPTPSAG [r14_475_JUSTAS],-0.694 ± 0.18,0.804 ± 0.033,0.393 ± 0.07
SAGGSAGGSAGGSGAEELAKKLQEKLEELGLEAEITVEYDEETNELTITITVDGKEYEFSAGGSAGGSAGGS [r4_312_TrROS_Hall],1.74 ± 0.063,2.24 ± 0.13,1.94 ± 0.06
SAGGSAGGSGSMKEIEIEIPKDDPQLIEKIKEELKQKNSKKVEVKEIKKTPEGKYKVKIIIEESAGGSAGGS [r12_91_JUSTAS],0.901 ± 0.081,1.03 ± 0.1,0.879 ± 0.17
SPPNFEVKEVEIPVPWEEIKELLPPGFTDIEPTGDRWTLHFKHPGYFVMIEIQWDPEDNQFPVKISVFKMSA [r9_604_TrROS],3.76 ± 0.054,2.59 ± 0.11,3.35 ± 0.19
SAGGSAGGSAGSYTVEPVELDDDSTLIRYTYPTDPNAVFPVVTVYPDGPVLTEPVVYSSSSAGGSAGGSAGG [r11_747_JUSTAS],0.0377 ± 0.11,0.271 ± 0.037,0.244 ± 0.091
SAGGKKIIIVIGSPEEVERLKELFPDEEVITLPREALENPEVLKELIKELEEKGIEVEIIIPPGVKPSAGGS [r8_376_TrROS_Hall],1.94 ± 0.26,3.82 ± 0.37,3.73 ± 0.44
SAGGGVEITREPDPAGGRRVRFTDPSGRTFEVEITPDSLRITRPDGTTRSAAVPPDADLRLPYSELASAGGS [r16_203_JUSTAS],0.418 ± 0.041,-0.625 ± 0.12,0.134 ± 0.057
SAGGSAGGSAPYFVRIKIENPDNGKPHSIEIPPNMTPEQAKEMAEELAEMHGWKITDVEYFPSAGGSAGGSA [r18_322_TrROS],0.433 ± 0.11,0.227 ± 0.088,0.371 ± 0.068
SGMMNNTTITVTDSEPLPDGSVLTNALTFTSSSAGISSPLDLSLSKTPVSSSTTYTNNGVAPASISLNSLSA [r9_1113_JUSTAS],0.611 ± 0.075,0.678 ± 0.019,0.697 ± 0.049
SMFKNVKSVHIYQDPIKGNNLIIVAETEEGTVELELPEDKAIEFLNTLKEKGFDIKVTHVEYLPVSPEYGSA [r9_607_TrMRF],2.453 ± 0.011,2.19 ± 0.064,2.36 ± 0.081
SAGGSAGGSKWIKIMYMIPPGDPEEIIEKLLPPGYKIEEVEVQRMPGYFMVDITIRDEDPDAISAGGSAGGS [r12_445_TrROS],2.37 ± 0.16,2.46 ± 0.11,2.37 ± 0.21
SAGGSAGGSTITFFFDNPEQIEKLIEELMDKNNVEVEVEPHPDNGMPMVTFTNPNNGKEITIMSAGGSAGGS [r12_635_TrROS],0.497 ± 0.23,0.48 ± 0.057,0.54 ± 0.21
